The text below walks through data of publication PMC12259267 (2025).

One test has as its target recombinant GFP–C-Myc (UniProt P01106 1-454). As to the kind of experiment: MST.
A further test has as its target T1, recombinant GFP–N-Myc (UniProt P04198 1-464).
T1 chain: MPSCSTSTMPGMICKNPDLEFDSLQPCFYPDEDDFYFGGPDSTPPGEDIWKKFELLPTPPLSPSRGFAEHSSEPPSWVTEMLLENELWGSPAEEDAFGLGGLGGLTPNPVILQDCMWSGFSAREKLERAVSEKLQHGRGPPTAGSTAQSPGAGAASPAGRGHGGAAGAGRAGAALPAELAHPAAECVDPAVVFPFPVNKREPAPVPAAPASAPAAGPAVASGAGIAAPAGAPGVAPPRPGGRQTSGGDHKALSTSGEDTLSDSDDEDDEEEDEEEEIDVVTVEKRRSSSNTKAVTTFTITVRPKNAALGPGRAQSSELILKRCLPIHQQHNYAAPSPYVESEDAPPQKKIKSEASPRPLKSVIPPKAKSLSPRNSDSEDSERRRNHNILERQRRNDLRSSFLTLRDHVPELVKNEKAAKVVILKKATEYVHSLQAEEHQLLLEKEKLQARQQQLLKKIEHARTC
As to the kind of experiment: MST.

Chain of recombinant GFP–C-Myc (P01106 whole entry): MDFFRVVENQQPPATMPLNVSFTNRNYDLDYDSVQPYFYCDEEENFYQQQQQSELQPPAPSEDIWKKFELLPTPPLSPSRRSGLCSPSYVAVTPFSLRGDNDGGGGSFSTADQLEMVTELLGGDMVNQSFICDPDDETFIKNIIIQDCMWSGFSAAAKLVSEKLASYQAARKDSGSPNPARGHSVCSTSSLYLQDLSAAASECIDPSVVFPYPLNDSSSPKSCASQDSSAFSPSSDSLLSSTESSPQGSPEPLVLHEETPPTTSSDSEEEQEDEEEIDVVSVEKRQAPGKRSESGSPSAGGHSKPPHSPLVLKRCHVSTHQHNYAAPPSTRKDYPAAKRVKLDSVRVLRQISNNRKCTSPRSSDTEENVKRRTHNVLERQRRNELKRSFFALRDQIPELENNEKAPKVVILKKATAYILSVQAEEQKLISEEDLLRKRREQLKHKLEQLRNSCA

B1: KLHL37-His recombinant protein (natural protein)
chain: MSVSVHENRKSRASSGSINIYLFHKSSYADSVLTHLNLLRQQRLFTDVLLHAGNRTFPCHRAVLAACSRYFEAMFSGGLKESQDSEVNFDNSIHPEVLELLLDYAYSSRVIINEENAESLLEAGDMLEFQDIRDACAEFLEKNLHPTNCLGMLLLSDAHQCTKLYELSWRMCLSNFQTIRKNEDFLQLPQDMVVQLLSSEELETEDERLVYESAINWISYDLKKRYCYLPELLQTVRLALLPAIYLMENVAMEELITKQRKSKEIVEEAIRCKLKILQNDGVVTSLCARPRKTGHALFLLGGQTFMCDKLYLVDQKAKEIIPKADIPSPRKEFSACAIGCKVYITGGRGSENGVSKDVWVYDTLHEEWSKAAPMLVARFGHGSAELKHCLYVVGGHTAATGCLPASPSVSLKQVEHYDPTINKWTMVAPLREGVSNAAVVSAKLKLFAFGGTSVSHDKLPKVQCYDQCENRWTVPATCPQPWRYTAAAVLGNQIFIMGGDTEFSACSAYKFNSETYQWTKVGDVTAKRMSCHAVASGNKLYVVGGYFGIQRCKTLDCYDPTLDVWNSITTVPYSLIPTAFVSTWKHLPS
Take B1: the EC50 in the test with recombinant GFP–C-Myc worked out at 2.54 nM; with recombinant GFP–N-Myc, 0.0983 nM.
